In assay [1] the target is T1, human FAP on cells (human, UniProt Q12884 1-760).
T1 construct: also called FAP-positive HEK cells (human); human FAP-expressing HEK cells
T1 sequence: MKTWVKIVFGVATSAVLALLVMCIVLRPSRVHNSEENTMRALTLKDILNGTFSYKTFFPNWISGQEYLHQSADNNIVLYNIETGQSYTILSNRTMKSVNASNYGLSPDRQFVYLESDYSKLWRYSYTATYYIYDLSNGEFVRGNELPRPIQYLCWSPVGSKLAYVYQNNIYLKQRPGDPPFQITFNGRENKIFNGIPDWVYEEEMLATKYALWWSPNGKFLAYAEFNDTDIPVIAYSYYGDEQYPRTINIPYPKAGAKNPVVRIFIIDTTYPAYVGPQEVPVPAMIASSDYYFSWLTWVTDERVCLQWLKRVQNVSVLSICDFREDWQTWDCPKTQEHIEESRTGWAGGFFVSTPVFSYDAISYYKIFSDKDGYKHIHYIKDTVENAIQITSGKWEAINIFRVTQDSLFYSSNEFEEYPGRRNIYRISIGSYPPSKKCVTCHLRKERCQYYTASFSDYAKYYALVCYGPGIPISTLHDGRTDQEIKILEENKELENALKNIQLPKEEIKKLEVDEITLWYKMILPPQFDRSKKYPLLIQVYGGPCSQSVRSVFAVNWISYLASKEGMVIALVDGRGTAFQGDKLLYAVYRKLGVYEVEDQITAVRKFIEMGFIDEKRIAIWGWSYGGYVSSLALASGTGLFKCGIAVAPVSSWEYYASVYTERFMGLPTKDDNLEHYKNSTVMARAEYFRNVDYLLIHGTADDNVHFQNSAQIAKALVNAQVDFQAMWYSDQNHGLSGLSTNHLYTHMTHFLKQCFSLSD
The assay is described as follows: binding to human FAP-positive HEK cells.

In assay [2] the target is T2, cyno CD40 on B cells (cynomolgus monkey, UniProt G7PG38 21-278).
T2 construct: whole, on cells; also called Cyno CD40-positive B cell
Briefly: binding to cyno CD40-positive B cells.

B1: CD40.9H3×FAP.LP62 bispecific antibody (bispecific antibody, human IgG1, kappa, L234A L235A)
heavy 1: EVQLVESGGGLVQPGGSLRLSCAASGFTFIGYSMNWVRQAPGKGLEWVSYISSYESTIYYADSVKGRFTISRDNAKNSLYLQMNSLRAEDTAVYYCARSRITLVRGVPRYFDLWGRGTLVTVSSASTKGPSVFPLAPSSKSTSGGTAALGCLVKDYFPEPVTVSWNSGALTSGVHTFPAVLQSSGLYSLSSVVTVPSSSLGTQTYICNVNHKPSNTKVDKKVEPKSCDKTHTCPPCPAPEAAGGPSVFLFPPKPKDTLMISRTPEVTCVVVSVSHEDPEVKFNWYVDGVEVHNAKTKPREEQYNSTYRVVSVLTVLHQDWLNGKEYKCKVSNKALPAPIEKTISKAKGQPREPQVYVLPPSREEMTKNQVSLLCLVKGFYPSDIAVEWESNGQPENNYLTWPPVLDSDGSFFLYSKLTVDKSRWQQGNVFSCSVMHEALHNHYTQKSLSLSPG
heavy 2: EVQLVESGGGLVQPGGSLRLSCAASGFTFIGYSMNWVRQAPGKGLEWVSYISSYESTIYYADSVKGRFTISRDNAKNSLYLQMNSLRAEDTAVYYCARSRITLVRGVPRYFDLWGRGTLVTVSSASTKGPSVFPLAPSSKSTSGGTAALGCLVKDYFPEPVTVSWNSGALTSGVHTFPAVLQSSGLYSLSSVVTVPSSSLGTQTYICNVNHKPSNTKVDKKVEPKSCDKTHTCPPCPAPEAAGGPSVFLFPPKPKDTLMISRTPEVTCVVVSVSHEDPEVKFNWYVDGVEVHNAKTKPREEQYNSTYRVVSVLTVLHQDWLNGKEYKCKVSNKALPAPIEKTISKAKGQPREPQVYVYPPSREEMTKNQVSLTCLVKGFYPSDIAVEWESNGQPENNYKTTPPVLDSDGSFALVSKLTVDKSRWQQGNVFSCSVMHEALHNHYTQKSLSLSPGGGSGGGGSGGGGSGGGGSEVQLLESGGGLVQPGGSLRLSCAASGFTFSSRGMSWVRQAPGKCLEWVSFISSSGTYVYYADSVKGRFTISRDNSKNTLYLQMNSLRAEDTAVYYCARDLPRTGVYFGMDVWGQGTTVTVSSGGGGSGGGGSGGGGSGGGGSDIQMTQSPSSLSASVGDRVTITCRASQSIFNYLNWYQQKPGKAPKLLIYGASTLQSGVPSRFSGSGSGTDFTLTISSLQPEDFATYYCQESYSTPYTFGCGTKVEIK
light: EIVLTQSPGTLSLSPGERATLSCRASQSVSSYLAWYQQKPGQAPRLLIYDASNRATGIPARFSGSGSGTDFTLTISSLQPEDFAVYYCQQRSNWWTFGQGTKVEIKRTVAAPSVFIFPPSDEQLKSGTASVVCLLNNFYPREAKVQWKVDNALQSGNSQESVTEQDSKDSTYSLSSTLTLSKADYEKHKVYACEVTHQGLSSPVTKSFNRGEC
notes: 2+1 format: two anti-CD40 9H3 Fabs on an IgG1 Fc with L234A, L235A, D265S and heterodimerization mutations; Ratio 1:1:2
For the molecule B1, the EC50 stood at 3.72 nM in assay [1] and 4.69 nM in assay [2].

Broadly, the EC50 is the midpoint of the concentration-response curve. A lower EC50 goes with higher potency in that assay.

The record behind these values is patent US20250376536A1 (Bristol-Myers Squibb, published 2025).
